Results as given in patent US12281340B2, “Method of producing N-acyl-amino group-containing compound” (AJINOMOTO CO., INC., priority 2018, dated 2025).
Blank lines part the entries; values can stand above or below the molecule they belong to.

Tests used:
[1] = Synthesis of N-caprinoylamino acid using purified acylamino acid synthetase, UPLC-MS detection; assay type: biochemical; parameters: key: +: Detected; −: Not detected; conditions: +ATP
Experimental: 2.0 mL of a reaction solution containing 50 mM Tris-HCl, 5 mM amino acid, 5 mM sodium caprate, 10 mM ATP, 10 mM MgCl2, 1 mM DTT, 50 μg of the purified enzyme, pH 8.0 was incubated at 25° C. for 24 hours. After completion of the reaction, 0.8 mL of a reaction stop solution (1% (v/v) phosphoric acid, 75% (v/v) methanol) was added, and the mixture was filtrated through a filter followed by being subjected to the UPLC-MS analysis to detect a signal of a molecular weight corresponding to an N-caprinoyl amino acid.
A UPLC-MS analysis condition is as follows.
Apparatus: ACQUITY UPLC (Waters)
• Column: ACQUITY UPLC BEH C18 1.7 2.1×100 mm Column (Waters) • Mobile phase A: 0.1% formic acid • Mobile phase B: acetonitrile Gradient
• Flow rate: 0.6 mL/min • Injection amount: 2 μL • Column temperature: 40° C. • Ionization method: ESI-negative
As a result of the UPLC-MS analysis, the signal of the molecular weight corresponding to the N-caprinoyl amino acid was confirmed in the reaction solution combining the enzyme and the amino acid shown in Table 3 below.

[2] = Synthesis of N-caprinoyl-amino acid derivative, N-caprinoyl-D-amino acid and N-caprinoyl-peptide using purified acylamino acid synthetase, UPLC-MS detection; assay type: biochemical; parameters: key: +: Detected; −: Not detected; conditions: +ATP
Experimental: 0.2 mL of a reaction solution containing 50 mM Tris-HCl, 5 mM amino acid derivative or D-amino acid or peptide, 5 mM sodium caprate, 10 mM ATP, 10 mM MgCl2, 1 mM DTT, 50 μg/mL of the purified enzyme, pH 8.0 was incubated at 25° C. for 24 hours. After completion of the reaction, 0.8 mL of the reaction stop solution (1% (v/v) phosphoric acid, 75% (v/v) methanol) was added, and the mixture was filtrated through the filter followed by being subjected to the UPLC-MS analysis to detect a signal of a molecular weight corresponding to an N-caprinoyl-amino acid derivative, an N-caprinoyl-amino acid or an N-caprinoyl-peptide. A condition for the UPLC-MS analysis is as described in Example 2.
As a result of the UPLC-MS analysis, the signal of the molecular weight corresponding to the N-caprinoyl-amino acid derivative, or N-caprinoyl-amino acid, or N-caprinoyl-peptide was confirmed in the reaction solution containing the enzyme in combination with the amino acid derivative or the D-amino acid or the peptide shown in Table 4 below.

[3] = substrates GABA and sodium caprate
[4] = substrates Gly and sodium caprate
[5] = substrates L-Ala and sodium caprate
[6] = substrates L-Arg and sodium caprate
[7] = substrates L-Asn and sodium caprate
[8] = substrates L-Asp and sodium caprate
[9] = substrates L-Cys and sodium caprate
[10] = substrates L-Gln and sodium caprate
[11] = substrates L-Glu and sodium caprate
[12] = substrates L-His and sodium caprate
[13] = substrates L-Ile and sodium caprate
[14] = substrates L-Leu and sodium caprate
[15] = substrates L-Lys and sodium caprate
[16] = substrates L-Met and sodium caprate
[17] = substrates L-Phe and sodium caprate
[18] = substrates L-Pro and sodium caprate
[19] = substrates L-Ser and sodium caprate
[20] = substrates L-Thr and sodium caprate
[21] = substrates L-Trp and sodium caprate
[22] = substrates L-Tyr and sodium caprate
[23] = substrates L-Val and sodium caprate
[24] = substrates β-Ala and sodium caprate
[25] = substrates Carnosine and sodium caprate
[26] = substrates D-Ala and sodium caprate
[27] = substrates D-Asp and sodium caprate
[28] = substrates D-Cys and sodium caprate
[29] = substrates D-Glu and sodium caprate
[30] = substrates D-Ile and sodium caprate
[31] = substrates D-Lys and sodium caprate
[32] = substrates L-Asp-L-Phe and sodium caprate
[33] = substrates L-Gly-L-Gly and sodium caprate
[34] = substrates Sarcosine and sodium caprate
[35] = substrates Taurine and sodium caprate

- signal of molecular weight corresponding to N-caprinoyl amino acid [1, 3]: +
- signal of molecular weight corresponding to N-caprinoyl amino acid [1, 4]: +
- signal of molecular weight corresponding to N-caprinoyl amino acid [1, 5]: +
- signal of molecular weight corresponding to N-caprinoyl amino acid [1, 6]: +
- signal of molecular weight corresponding to N-caprinoyl amino acid [1, 7]: +
- signal of molecular weight corresponding to N-caprinoyl amino acid [1, 8]: +
- signal of molecular weight corresponding to N-caprinoyl amino acid [1, 9]: +
- signal of molecular weight corresponding to N-caprinoyl amino acid [1, 10]: +
- signal of molecular weight corresponding to N-caprinoyl amino acid [1, 11]: +
- signal of molecular weight corresponding to N-caprinoyl amino acid [1, 12]: −
- signal of molecular weight corresponding to N-caprinoyl amino acid [1, 13]: +
- signal of molecular weight corresponding to N-caprinoyl amino acid [1, 14]: +
- signal of molecular weight corresponding to N-caprinoyl amino acid [1, 15]: +
- signal of molecular weight corresponding to N-caprinoyl amino acid [1, 16]: +
- signal of molecular weight corresponding to N-caprinoyl amino acid [1, 17]: +
- signal of molecular weight corresponding to N-caprinoyl amino acid [1, 18]: −
- signal of molecular weight corresponding to N-caprinoyl amino acid [1, 19]: +
- signal of molecular weight corresponding to N-caprinoyl amino acid [1, 20]: +
- signal of molecular weight corresponding to N-caprinoyl amino acid [1, 21]: +
- signal of molecular weight corresponding to N-caprinoyl amino acid [1, 22]: +
- signal of molecular weight corresponding to N-caprinoyl amino acid [1, 23]: +
- signal of molecular weight corresponding to N-caprinoyl amino acid [1, 24]: +
- signal of molecular weight corresponding to N-caprinoyl compound [2, 25]: +
- signal of molecular weight corresponding to N-caprinoyl compound [2, 26]: +
- signal of molecular weight corresponding to N-caprinoyl compound [2, 27]: +
- signal of molecular weight corresponding to N-caprinoyl compound [2, 28]: +
- signal of molecular weight corresponding to N-caprinoyl compound [2, 29]: +
- signal of molecular weight corresponding to N-caprinoyl compound [2, 30]: +
- signal of molecular weight corresponding to N-caprinoyl compound [2, 31]: +
- signal of molecular weight corresponding to N-caprinoyl compound [2, 32]: −
- signal of molecular weight corresponding to N-caprinoyl compound [2, 33]: +
- signal of molecular weight corresponding to N-caprinoyl compound [2, 34]: −
- signal of molecular weight corresponding to N-caprinoyl compound [2, 35]: +
B1: PaHP: hypothetical protein from Pantoea agglomerans (PaaK protein), His-tagged (protein)
chain: MRSYDHQPTFVEQHNRISIISGSTFRDYEHFARSVPISKLVRMHEVEGKQGDDSSANLPSLIGATSGTSGKMKPVRIQLKNGGCSVSASERNFIYHLRERRVFFPQDVVGNLFTINLFSTLHQSACDIVKYCQGSIVPVGDIALLTRDHFLFLQEVELSVLFGVPATIIQFVEAMLSNKVPIGIKKIVFTGETLRPSQAEWLRSRLGRTLSIVGLYGLSECGFLGLTDAQDCDEYTLFNDDFFFEQDPVHGLLVTSLDPSAKNRLIRYPTGDGVELTFHNKQLKMRIMARKDLLFNFVGNLISVESIAATVAESIPESFIQLVIRSEKGQQELLLVNVAGKNLQTQQLELIAQKLRARPELAEVYQKQRGRLEVHSVAENAFVLSARGKHQFVVDERE
modifications: His-tag; Pantoea agglomerans
notes: hypothetical protein from Pantoea agglomerans (PaaK protein), His-tagged

- signal of molecular weight corresponding to N-caprinoyl amino acid [1, 3]: +
- signal of molecular weight corresponding to N-caprinoyl amino acid [1, 4]: +
- signal of molecular weight corresponding to N-caprinoyl amino acid [1, 5]: +
- signal of molecular weight corresponding to N-caprinoyl amino acid [1, 6]: +
- signal of molecular weight corresponding to N-caprinoyl amino acid [1, 7]: +
- signal of molecular weight corresponding to N-caprinoyl amino acid [1, 8]: +
- signal of molecular weight corresponding to N-caprinoyl amino acid [1, 9]: +
- signal of molecular weight corresponding to N-caprinoyl amino acid [1, 10]: +
- signal of molecular weight corresponding to N-caprinoyl amino acid [1, 11]: +
- signal of molecular weight corresponding to N-caprinoyl amino acid [1, 12]: +
- signal of molecular weight corresponding to N-caprinoyl amino acid [1, 13]: +
- signal of molecular weight corresponding to N-caprinoyl amino acid [1, 14]: +
- signal of molecular weight corresponding to N-caprinoyl amino acid [1, 15]: +
- signal of molecular weight corresponding to N-caprinoyl amino acid [1, 16]: +
- signal of molecular weight corresponding to N-caprinoyl amino acid [1, 17]: +
- signal of molecular weight corresponding to N-caprinoyl amino acid [1, 18]: +
- signal of molecular weight corresponding to N-caprinoyl amino acid [1, 19]: +
- signal of molecular weight corresponding to N-caprinoyl amino acid [1, 20]: +
- signal of molecular weight corresponding to N-caprinoyl amino acid [1, 21]: +
- signal of molecular weight corresponding to N-caprinoyl amino acid [1, 22]: +
- signal of molecular weight corresponding to N-caprinoyl amino acid [1, 23]: +
- signal of molecular weight corresponding to N-caprinoyl amino acid [1, 24]: +
- signal of molecular weight corresponding to N-caprinoyl compound [2, 25]: +
- signal of molecular weight corresponding to N-caprinoyl compound [2, 26]: +
- signal of molecular weight corresponding to N-caprinoyl compound [2, 27]: +
- signal of molecular weight corresponding to N-caprinoyl compound [2, 28]: +
- signal of molecular weight corresponding to N-caprinoyl compound [2, 29]: +
- signal of molecular weight corresponding to N-caprinoyl compound [2, 30]: +
- signal of molecular weight corresponding to N-caprinoyl compound [2, 31]: +
- signal of molecular weight corresponding to N-caprinoyl compound [2, 32]: +
- signal of molecular weight corresponding to N-caprinoyl compound [2, 33]: +
- signal of molecular weight corresponding to N-caprinoyl compound [2, 34]: +
- signal of molecular weight corresponding to N-caprinoyl compound [2, 35]: +
B2: PsIAAL: indoleacetate-lysine synthetase from Pseudomonas savastanoi (PaaK protein), His-tagged (protein, listed as Pseudomonas savastanoi)
chain: MTAYDMEKEWSRISITAAKIHQNNDFEGFTYQDFRTHVPIMDKDGFAAQTERCLERNERNCLIGFTSGTSGNIKRCYYYYDCEVDEDSSLSNVFRSNGFILPGDRCANLFTINLFSALNNTITMMAGNCGAHVVSVGDITLVTKSHFEALNSIKLNVLLGVPSTILQFINAMQHNGVHINIEKVVFTGESLKTFQKKIIRQAFGEQVSIVGVYGSSEGGILGFTNSPCHTEYEFLSDKYFIEKEGDSILITSLTRENFTPLLRYRLGDTATLSMKGDKLYLTDIQREDMSFNFMGNLIGLGIIQQTIKQTLGRSLEIQVHLSVTEERKELVTVFVQASEVDEDERVRIETAIADIPDIKEAYQKNQGTVSVLRKDARDYAVSERGKMLYIIDRRN
modifications: His-tag
notes: indoleacetate-lysine synthetase from Pseudomonas savastanoi (PaaK protein), His-tagged
